Experiment [1] concerns the target T1, human ACKR4-EYFP (human) (UniProt Q9NPB9).
T1 sequence: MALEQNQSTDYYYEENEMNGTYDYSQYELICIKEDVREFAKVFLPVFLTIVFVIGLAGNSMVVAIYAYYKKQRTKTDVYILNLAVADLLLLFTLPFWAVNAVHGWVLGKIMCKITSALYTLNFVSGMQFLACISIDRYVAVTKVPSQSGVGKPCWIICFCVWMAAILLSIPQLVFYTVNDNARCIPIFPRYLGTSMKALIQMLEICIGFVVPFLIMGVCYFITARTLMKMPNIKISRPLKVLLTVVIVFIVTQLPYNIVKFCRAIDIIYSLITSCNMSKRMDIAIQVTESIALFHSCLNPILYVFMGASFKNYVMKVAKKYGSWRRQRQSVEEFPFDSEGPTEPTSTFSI

For experiment [2], the target named is T1, human ACKR4-EYFP (human). This is another data set of the same source.

From publication PMC7188906 come the findings set out here.

Turning to “recombinant human CCL25 (from UniProt O15444 24-150) (ligand)”, in experiment [1], the EC50 of β-arrestin1-Nluc recruitment to ACKR4-EYFP (BRET, HeLa cells, graded chemokine) was determined as 115 nM and the EC50 of β-arrestin2-Nluc recruitment to ACKR4-EYFP (BRET, HeLa cells, graded chemokine) was determined as 130 nM. In experiment [2], the EC50 of GRK2-Nluc recruitment to ACKR4-EYFP (BRET, HeLa cells, dose-response) amounted to 87 nM and the EC50 of GRK3-Nluc recruitment to ACKR4-EYFP (BRET, HeLa cells, dose-response) is 147 nM.

In experiment [1], “recombinant human CCL19 (from UniProt Q99731 22-98) (ligand)” gave an EC50 of β-arrestin1-Nluc recruitment to ACKR4-EYFP (BRET, HeLa cells, graded chemokine) of 76 nM and an EC50 of β-arrestin2-Nluc recruitment to ACKR4-EYFP (BRET, HeLa cells, graded chemokine) of 32 nM. In experiment [2], the EC50 of GRK2-Nluc recruitment to ACKR4-EYFP (BRET, HeLa cells, dose-response) worked out at 35 nM and the EC50 of GRK3-Nluc recruitment to ACKR4-EYFP (BRET, HeLa cells, dose-response) was determined as 42 nM.

Turning to “recombinant human CCL21 (from UniProt O00585 24-134) (ligand)”, in experiment [1], the EC50 of β-arrestin1-Nluc recruitment to ACKR4-EYFP (BRET, HeLa cells, graded chemokine) came to 240 nM and the EC50 of β-arrestin2-Nluc recruitment to ACKR4-EYFP (BRET, HeLa cells, graded chemokine) worked out at 133 nM. Besides, in experiment [2], the EC50 of GRK2-Nluc recruitment to ACKR4-EYFP (BRET, HeLa cells, dose-response) worked out at 129 nM and the EC50 of GRK3-Nluc recruitment to ACKR4-EYFP (BRET, HeLa cells, dose-response) was 142 nM.
